{
  "source": "paper PMC2213500",
  "about": "(The Journal of Experimental Medicine, 2000)",
  "key": {"[1]": {"target": "fluorescein-labelled HA_(Anchorless) peptide (influenza virus)", "assay": "dissociation kinetics of fluorescent peptide-MHC complexes"}, "[2]": {"target": "Cys-HA_(Anchorless) peptide, unlabelled (influenza virus)", "assay": "SPR"}, "[3]": {"target": "influenza virus hemagglutinin peptide HA_(305–318), unlabelled (influenza virus)", "assay": "SPR"}},
  "data": [
    {"substance": "soluble mutant HLA-DR1 with β86 glycine changed to tyrosine (from UniProt P01903) (complex)", "values": [
      {"measurement": "t1/2 of dissociation", "setting": "[1]", "result": 1.8, "unit": "h"},
      {"measurement": "dissociation rate in the presence of DM", "setting": "[2]", "result": "8.5e-05", "unit": "s⁻¹"},
      {"measurement": "rate of binding to the peptide surface in the absence of DM", "setting": "[2]", "result": 0.119, "unit": "s⁻¹"},
      {"measurement": "t1/2 in the presence of DM", "setting": "[2]", "result": 2.25, "unit": "h"},
      {"measurement": "t1/2 of dissociation", "setting": "[2]", "result": 3.4, "unit": "h"}
    ]},
    {"substance": "soluble wild-type HLA-DR1 (empty, no added peptide) (from UniProt P01903) (complex)", "values": [
      {"measurement": "t1/2 of dissociation", "setting": "[1]", "result": 1.8, "unit": "h"},
      {"measurement": "dissociation rate in the presence of DM", "setting": "[2]", "result": 0.0038, "unit": "s⁻¹"},
      {"measurement": "rate of binding to the peptide surface in the absence of DM", "setting": "[2]", "result": 0.035, "unit": "s⁻¹"},
      {"measurement": "t1/2 in the presence of DM", "setting": "[2]", "result": 0.05, "unit": "h"},
      {"measurement": "dissociation rate in the presence of DM", "setting": "[3]", "result": "5.6e-07", "unit": "s⁻¹"},
      {"measurement": "t1/2 in the presence of DM", "setting": "[3]", "result": 344, "unit": "h"}
    ]}
  ]
}
